Substitutions are numbered along the chain they refer to. Entries after “also recorded” stand apart in the source; their conditions may differ.
How the values were obtained:
[1] = target: T1, BFL-1ΔC C4S/C19S/C55S / FITC-BID BH3 (Homo sapiens, UniProt Q16548, C19S/C4S/C55S); assay: Competitive fluorescence polarization binding assay, BFL-1ΔC C4S/C19S/C55S
T1 construct: Recombinant anti-apoptotic BFL-1ΔC (aa 1-151) and its cysteine to serine mutants were cloned into PET17b; hexahistidine (N); made in house; host or cells: Escherichia coli LOBSTR BL21(DE3)
T1 sequence (Q16548 1-151 C4S/C19S/C55S): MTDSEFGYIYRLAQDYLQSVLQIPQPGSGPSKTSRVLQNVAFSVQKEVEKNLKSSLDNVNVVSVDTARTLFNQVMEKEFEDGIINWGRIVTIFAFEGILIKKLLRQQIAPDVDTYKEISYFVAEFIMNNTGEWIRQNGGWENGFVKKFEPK
Protocol: Fluorescence polarization (FP) assays were performed as previously described (Pitter et al., 2008 (supra)). Briefly, direct binding curves were first generated by FITC-BID BH3 (25 nM) with serial dilutions of anti-apoptotic protein, and FP was measured at 5 min on a SpectraMax M5 microplate reader (Molecular Devices). For competition assays, a serial dilution of acetylated or warhead-bearing NOXA SAHB was added to the indicated recombinant protein at ˜EC75 concentration, as determined by the direct binding assay. FITC-BID BH3 (25 nM) was then added and fluorescence polarization was measured at equilibrium. IC50 values were calculated by nonlinear regression analysis of competitive binding curves using PRISM software (GraphPad).

U937 cells = assay: LDH release assay, U937 cells; format: cell-based, human; details: 30 min and 4 hr, listed as D-NA-NOXA SAHB-15 R31E
Protocol: After overnight incubation for A375P cells, or immediately upon plating for U937 cells, the cells were treated with the indicated concentrations of D-NA-NOXA SAHBs in DMEM or RPMI supplemented with 5% FBS for the indicated time period (30 min, 4 h). After plate centrifugation at 1,500 rpm (Thermo Scientific Sorvall Four-Place Swinging Bucket Rotor [75006445]; 478×g) for 5 min at 4° C., LDH release was quantified by transferring 100 μL of cell-culture medium to a clear plate (Corning), incubating with 100 μL of LDH reagent (Roche) for 30 min while shaking, and then measuring absorbance at 490 nm on a microplate reader (Spectramax M5, Molecular Devices).

native BFL-1 [2] = target: T2, native BFL-1 (Homo sapiens, UniProt Q16548); assay: BFL-1 targeting in A375P lysates (streptavidin pulldown, BFL-1 western); format: binding; details: biotinylated SAHB, compared to acetylated construct
T2 construct: endogenous in cells; host or cells: A375P melanoma cells (A10); U937 AML cells (A12), lysates
T2 sequence (Q16548 1-175): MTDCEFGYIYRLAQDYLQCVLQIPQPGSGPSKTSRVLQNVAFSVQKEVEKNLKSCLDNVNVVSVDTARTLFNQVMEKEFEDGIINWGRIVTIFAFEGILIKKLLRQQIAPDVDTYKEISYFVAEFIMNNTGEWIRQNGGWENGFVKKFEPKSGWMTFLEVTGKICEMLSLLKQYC
Protocol: (§1) Cultured A375P and U937 cells were trypsinized or harvested, respectively, washed with PBS, and lysed by incubating with 1% CHAPS lysis buffer (1% CHAPS, 150 mM NaCl, 50 mM Tris pH 7.4, 100 μM DTT). The protein concentrations of the soluble fraction were measured using a BCA kit according to the manufacturer's instructions (Thermo Scientific). Lysate samples (1 mg) were incubated with vehicle or C-terminally biotinylated NOXA SAHBs (30 μM) overnight in 1% CHAPS lysis buffer at 4° C. Biotin capture was accomplished by incubating the mixture with high-capacity SA agarose (Thermo Scientific) for 2 hours at 4° C., followed by centrifugation and washing the pelleted beads three times with lysis buffer (1 mL). Bead-bound proteins were eluted by boiling in 10% SDS containing 10 mg/mL biotin for 10 minutes and then subjected to electrophoresis and western blotting using BFL-1 (Abcam, #125259) and MCL-1 (Rockland #600-401-394S) antibodies.

[3] = target: T3, HA-BFL-1ΔC C4S/C19S / tBID (Homo sapiens, UniProt Q16548, C19S/C4S); assay: BFL-1/BH3 complex disruption: competition with tBID in 293T lysates; format: binding; details: anti-HA immunoprecipitation
T3 construct: Recombinant anti-apoptotic BFL-1ΔC (aa 1-151) and its cysteine to serine mutants were cloned into PET17b; expressed in transfected cells; host or cells: 293T (lysate)
T3 sequence (Q16548 1-151 C4S/C19S): T1 sequence (Q16548 1-151 C4S/C19S/C55S) with S55C
Protocol: To evaluate the capacity of biotinylated SAHBs to compete with tBID for interactions with BFL-1 and MCL-1, 293T cells were transfected with either HA-BFL-1ΔC C4S/C19S or FLAG-MCL-1 in the p3XFLAG-CMV-10 vector (Sigma) as above. After 24 hr, cells were trypsinized, washed with PBS, lysed in 1% CHAPS buffer, and the supernatant collected for protein concentration determination by BCA kit. Lysate samples (0.5 mg) were incubated with 0.25 μM recombinant tBID (R&D Systems) and 5 μM biotinylated NOXA SAHBs for 6 h at RT. The mixtures were then subjected to HA or FLAG immunoprecipitation, followed by western analysis using 1:1000 dilutions of HA (Sigma Aldrich, #12CA5), FLAG (Sigma-Aldrich, F7425), and BID (Santa Cruz sc-11423) antibodies.

MV4;11 cells = assay: Cell viability (CellTiter-Glo) and CalcuSyn synergy, MV4;11; details: MV4;11 cells (not dependent on BFL-1, dependent on MCL-1)
Protocol: Cell viability and caspase-3/7 activation was measured using CellTiter-Glo and Caspase-Glo 3/7 chemiluminescence reagents (Promega), respectively, and luminescence was detected by a Spectramax M5 microplate reader. Synergy of drug interactions was calculated using the CalcuSyn software (Biosoft).

native BFL-1 [4] = target: T2, native BFL-1; assay: BFL-1 targeting in U937 lysates (streptavidin pulldown, BFL-1 western); format: binding; details: biotinylated SAHB
Source text: We confirmed that both of our lead constructs could covalently crosslink to full-length BFL-1 protein, which bears a C-terminal helix that could potentially compete with D-NA-NOXA SAHBs for interaction at the canonical BH3-binding pocket in cancer cells. We generated recombinant full-length BFL-1 and expressed HA-tagged full-length BFL-1 in 293T cells, and then conducted crosslinking analyses in vitro and in treated cells, respectively.
as §1

## JAT8LREFGDXLNFRQ [D-NA-NOXA-15 R31E]
[1]
  competition for FITC-BID BH3 binding to BFL-1ΔC C4S/C19S/C55S: neither D-NA- nor Ac-NOXA15 R31E competes
U937 cells
  LDH release (non-specific cell membrane-lytic activity): no LDH release; also recorded: no non-specific cell membrane-lytic activity
Native BFL-1 [2]
  targeting of native BFL-1: enhanced targeting of native BFL-1
[3]
  competition with tBID for HA-BFL-1ΔC C4S/C19S interaction: effectively competes with tBID
MV4;11 cells
  cytotoxicity, single agent: essentially insensitive
Native BFL-1 [4]
  targeting of native BFL-1: more effective binder of native BFL-1 protein between the two constructs

Source: patent US12466853B2, “Selective targeting of apoptosis proteins by structurally-stabilized and/or cysteine-reactive NOXA peptides” (priority 2017, dated 2025)
